Patent publication US10711246B2, “Methods and compositions for generating epicardium cells” (UNIVERSITY HEALTH NETWORK, priority 2013, dated 2020)
“Also recorded” adds a separate entry of the source.

What was measured:
hESC-derived mesoderm [1] = test: Cardiomyocyte specification from hESC-derived day 4 mesoderm, cTnT+ cells at day 15 by flow cytometry; type: cell-based, human; settings: for cardiomyocyte development in presence of Wnt and activin/nodal/TGFβ inhibitor: specification step, contracting cTnT/SIRPA cells at day 15; for cardiomyocyte development / specification: added to day 4 mesoderm during specification step, high levels of BMP4 or inhibitors, analysed day 15
Description: FIG. 1. Cardiomyocyte specification from hESCs. Scheme of the protocol used to differentiate hESCs towards the cardiomyocyte lineage highlighting the three main stages of development: 1) mesoderm induction, 2) cardiovascular specification and 3) maturation. Cells from ActivinA/BMP4-induced day 4 embryoid bodies (EBs) are plated as a monolayer on gelatin coated wells. […] Following specification, the cultures were maintained in VEGF for 9 days and then analyzed for the presence of cTnT+ cardiomyocytes by flow cytometry. FIG. 2. […] (a) Flow cytometric analyses showing the presence of the KDR+ and PDGFRα+ populations at day 4 and day 5 and the cTnT+ expression on day 15 of culture following no treatment (control), treatment with BMP4 (10 ng/ml) or the BMP4 inhibitor Noggin (400 ng/ml). (b) Total cell numbers per well at day 15 in the cultures treated as above. Error bars represent standard deviation from the mean from three experiments. FIG. 3. […] Graphical representation of flow cytometry analyses indicating the percent cTnT^+ cells in day 15 cultures generated from populations treated with the indicated amounts of BMP4 or Noggin. NT=no treatment. Bars represent standard deviation from the mean of the values from three independent experiments (N=3); *P≤0.05, **P≤0.01 when compared to no treatment. FIG. 9. […] Error bars represent standard deviation from the mean of the values from three independent experiments (N=3); *P≤0.05, **P≤0.01 when compared to the ‘no Wnt treatment’ (NT) control in context of the indicated manipulation of the BMP pathway. (b) qRT-PCR-based analyses of WT1 expression on day 15 cultures generated from untreated cells (control) or cells treated with either BMP4 (10 ng/ml) or DM (4 μM) in combination with the indicated amounts of DKK or CHIR. Values are relative to the housekeeping gene TBP. Error bars represent standard deviation from the mean of the values from three independent experiments (N=3); *P≤0.05, **P≤0.01 when compared to the ‘no Wnt treatment’ (NT) control in the context of the indicated manipulation of the BMP pathway. (c) Flow cytometry analyses showing percent cTnT+ cells and qRT-PCR analyses for WT1 expression in day 15 cultures generated from untreated cells (control) or cells treated with either BMP4 (10 ng/ml) or DM (4 μM) in combination with the indicated amounts of XAV939 (XAV). Error bars represent standard deviation from the mean of the values from three independent experiments (N=3); *P≤0.05, **P≤0.01 when compared to no Wnt treatment (see FIGS. 9a and 9b) in the context of the specific BMP treatment. (d) Flow cytometry analyses showing percent cTnT+ cells and qRT-PCR analyses of WT1 expression in day 15 cultures generated from untreated cells (control) or cells treated with either BMP4 (10 ng/ml) or DM (4 μM) in combination with the indicated amounts of IWP2. Error bars represent standard deviation from the mean of the values from three independent experiments (N=3); *P≤0.05, **P≤0.01 when compared to no Wnt treatment (see FIGS. 9a and 9b) in the context of the specific BMP treatment. Media consisting of StemPro-34 (Life Technologies) supplemented with […] penicillin/streptomycin, 2 mM L-glutamine, 1 mM ascorbic acid, and 4 3 10_4 M monothioglycerol (MTG) (Sigma). […] The Activin/Nodal/TGF-b and BMP inhibition experiments were carried out with SB-431542 (Tocris, Ellisville, Mo.) and dorsomorphin (Sigma), respectively. For experiments involving Wnt signaling, CHIR-99021 (Stemgent), XAV-939 (R&D), or IWP2(R&D) were used at the indicated concentrations. Cultures were maintained in a 5% CO2, 5% O2, 90% N2 environment for the first 10-12 days and were then transferred into a 5% CO2 air environment for the remainder of the culture period.

hESC-derived mesoderm [2] = test: qRT-PCR and immunostaining of myocardial and epicardial markers (WT1, TBX18) after treatment of mesoderm; type: cell-based, human; settings: for WT1 expression in BMP4-treated cells: higher concentrations of DKK1 or small molecule antagonists, CHIR
Text: Values are relative to the housekeeping gene TBP. Error bars represent standard deviation from the mean of the values from three independent experiments (N=3); *P≤0.05, **P≤0.01 when compared to no treatment. FIG. 5. […] Error bars represent standard deviation from the mean of the values from three independent experiments (N=3); *P≤0.05, **P≤0.01 when compared to the ‘no Wnt treatment’ (NT) control in context of the indicated manipulation of the BMP pathway. (b) qRT-PCR-based analyses of WT1 expression on day 15 cultures generated from untreated cells (control) or cells treated with either BMP4 (10 ng/ml) or DM (4 μM) in combination with the indicated amounts of DKK or CHIR. Values are relative to the housekeeping gene TBP. Error bars represent standard deviation from the mean of the values from three independent experiments (N=3); *P≤0.05, **P≤0.01 when compared to the ‘no Wnt treatment’ (NT) control in the context of the indicated manipulation of the BMP pathway. (c) Flow cytometry analyses showing percent cTnT+ cells and qRT-PCR analyses for WT1 expression in day 15 cultures generated from untreated cells (control) or cells treated with either BMP4 (10 ng/ml) or DM (4 μM) in combination with the indicated amounts of XAV939 (XAV). Error bars represent standard deviation from the mean of the values from three independent experiments (N=3); *P≤0.05, **P≤0.01 when compared to no Wnt treatment (see FIGS. 9a and 9b) in the context of the specific BMP treatment. (d) Flow cytometry analyses showing percent cTnT+ cells and qRT-PCR analyses of WT1 expression in day 15 cultures generated from untreated cells (control) or cells treated with either BMP4 (10 ng/ml) or DM (4 μM) in combination with the indicated amounts of IWP2. Error bars represent standard deviation from the mean of the values from three independent experiments (N=3); *P≤0.05, **P≤0.01 when compared to no Wnt treatment (see FIGS. 9a and 9b) in the context of the specific BMP treatment. […] As a first approach to identify these cells, we analyzed them for expression of a panel of myocardial and epicardial genes over a 6-15 day time course. […] In vivo, the epicardial cells form an epithelial layer that surrounds the developing heart^18. In addition to their distinct morphology, epithelial cells in culture are characterized by their ability to form tight junctions that can be monitored by the presence of the zona occludins 1 (ZO1) protein.

[3] = titration during specification step, FIG. 3
[4] = qRT-PCR, 6-15 day time course, cells from treated mesoderm

## Cc1c[nH]c(-c2cnc(NCCNc3ccc(C#N)cn3)nc2-c2ccc(Cl)cc2Cl)n1 [CHIR99021, reference compound]
hESC-derived mesoderm [1]; Wnt activation in presence of dorsomorphin
  cardiomyocyte development in DM-treated cultures: unaffected
hESC-derived mesoderm [1]; Wnt activation, no BMP pathway regulators
  cardiomyocyte development in the endogenous BMP control: inhibited cardiomyocyte development
hESC-derived mesoderm [2]; qRT-PCR day 15
  WT1 expression in DM treated cultures: no change in WT1 expression
  WT1 expression in the endogenous BMP population: increased levels
  WT1 expression in BMP4-treated cells: did not impact WT1 expression

## Cc1ccc2nc(NC(=O)CSc3nc4c(c(=O)n3-c3ccccc3)SCC4)sc2c1 [IWP2, reference compound]
hESC-derived mesoderm [2]; qRT-PCR day 15
  WT1 expression in BMP4-treated cells: decreased WT1 expression

## NC(=O)c1ccc(-c2nc(-c3ccc4c(c3)OCO4)c(-c3ccccn3)[nH]2)cc1 [SB431542, reference compound]
hESC-derived mesoderm [1]
  cardiomyocyte development in presence of Wnt and activin/nodal/TGFβ inhibitor: cardiomyocytes routinely develop

## Oc1nc(-c2ccc(C(F)(F)F)cc2)nc2c1CSCC2 [XAV939, reference compound]
hESC-derived mesoderm [2]; qRT-PCR day 15
  WT1 expression in BMP4-treated cells: decreased WT1 expression

B1: DKK1 (protein, UniProt O94907 32-266, looked up)
Dickkopf-related protein 1: TLNSVLNSNAIKNLPPPLGGAAGHPGSAVSAAPGILYPGGNKYQTIDNYQPYPCAEDEECGTDEYCASPTRGGDAGVQICLACRKRRKRCMRHAMCCPGNYCKNGICVSSDQNHFRGEIEETITESFGNDHSTLDGYSRRTTLSSKMYHTKGQEGSVCLRSSDCASGLCCARHFWSKICKPVLKEGQVCTKHRRKGSHGLEIFQRCYCGEGLSCRIQKDHHQASNSSRLHTCQRH
hESC-derived mesoderm [1]
  cardiomyocyte development in presence of Wnt and activin/nodal/TGFβ inhibitor: cardiomyocytes routinely develop

B2: Bone Morphogenetic Protein 4 (protein, UniProt P12644 293-408, looked up)
Bone morphogenetic protein 4: SPKHHSQRARKKNKNCRRHSLYVDFSDVGWNDWIVAPPGYQAFYCHGDCPFPLADHLNSTNHAIVQTLVNSVNSSIPKACCVPTELSAISMLYLDEYDKVVLKNYQEMVVEGCGCR
notes: Bone Morphogenetic Protein 4, human BMP4 (R&D Systems)
hESC-derived mesoderm [1]
  cardiomyocyte development / specification: completely blocked cardiomyocyte development
hESC-derived mesoderm [1]; [3]
  concentrations that inhibited cardiomyocyte specification: ≥ 0.63 ng/mL
  low levels at which cardiomyocyte development is achieved: 0.31 ng/mL
hESC-derived mesoderm [2]; day 15 of culture
  WT1 (nuclear) by immunostaining: detected only in cells induced with BMP4
hESC-derived mesoderm [2]; [4]
  TBX18 expression: predominantly
  WT1 expression: exclusively
hESC-derived mesoderm [2]; qRT-PCR, cells from treated mesoderm
  BNC1 and ANXA8 expression: highly expressed

B3: noggin (protein, UniProt Q13253 28-232, looked up)
Noggin: QHYLHIRPAPSDNLPLVDLIEHPDPIFDPKEKDLNETLLRSLLGGHYDPGFMATSPPEDRPGGGGGAAGGAEDLAELDQLLRQRPSGAMPSEIKGLEFSEGLAQGKKQRLSKKLRRKLQMWLWSQTFCPVLYAWNDLGSRFWPRYVKVGSCFSKRSCSVPEGMVCKPSKSVHLTVLRWRCQRRGGQRCGWIPIQYPIISECKCSC
hESC-derived mesoderm [1]
  cardiomyocyte development / specification: completely blocked cardiomyocyte development; also recorded: inhibited cardiomyocyte specification
hESC-derived mesoderm [1]; flow cytometry after treatment of day 4 mesoderm
  levels of KDR (mesoderm development): decrease the levels of KDR to some extent
hESC-derived mesoderm [1]; [3]
  low levels at which cardiomyocyte development is achieved: 12.5 to 200 ng/mL
hESC-derived mesoderm [2]; qRT-PCR, 6-15 day time course
  expression of panel of myocardial and epicardial genes: did not express significant levels of any of these genes
